Here are results for 47 sequences from the NTF2 design screens of Basanta et al. (2020).

A short description of this series: protease stability score; higher = more stable; yeast display proteolysis, trypsin and chymotrypsin.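 Also: relative to predicted unfolded state with 0 unfolded-like and 1 meaning tenfold more protease.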
Regarding “SEEEHHAEEFVKIFTMTNLTGDFTTLEKLADPNVQIDVGDKHFHGREEMLKLIQDERREFGFKHLHLEIDRIETQGNFLDVHITVIIRVNGVEMRHKRRLTILKIDGQWHIKSVEVD”, the protease stability score stood at 1.27.

The sequence “SEEEHHAKKIAEDFLRWFITGDEDVLSHYADPDVRSRIGDKHHHGREELRRVMERLVRELRIKEIRIERYEVQGEKAILDSRVRGDVNGVEVEVRQIVIVVVIDGRLKSMELRLG” gave a protease stability score of 0.516.

“SEEEHHARYMTQLFLHALETGDWHELRRMADPNMRLRVRVGDKHWHYHGWEHLHELLESFLKRVDHVEFIERSIHVQGEKSRFRGDVREHVGDKEHTHHIILILDIVNGKIHRIIIINE” showed a protease stability score of 1.37.

Sequence “SEEEHHDRLMTDFFIEIMRTGDEKEFIDLFDPHDRTHIDGVDAHGREIAVELLHLFLRKLGFDHIRVTDVHVYNGKVELHMRSDQGDKHVEVQIHSVVYNGKLQHLHVKIRTL” displayed a protease stability score of 1.63.

Turning to “SEEEHHDRMVSHLWIKLWSTGDEDRIRELLDPNAKFELEQGDKEVHDHGRESIAKWLEIMFRHLGVKHFRLEHVHVFNGRIEVIMRLDVGDKHITIILRTQVIDGRIKSFVIETRHK”, the protease stability score was 1.17.

“SEEEHHFERWMRVFLHSMRTGDPSSFEELLDPNTRFIYGDKERHGREEANKWAHHLRITHMEDTDFDVYDGVLTIDIRLDFVVNGRRHEVKTHLLVVKIDGRWLINEVEIK” showed a protease stability score of 0.514.

The sequence “SEEEHHVVRMMELLIDLLMTGDEEVFDSLVDPDVKSNINGVHSVGMESINEIFRRYVDFFKNVKVDVHLRDREAQGDKHITYGVRIERFDGKQFTIDTRLELKVVNGRIKDVKVDIK” returned a protease stability score of 1.46.

As to “SEEEHISERAMELLSESIRTGNEHLISKLADPHTRMLYGDKELHGRSRWSEWASRVKNMRFETHEVRVVGDKIRSDVRSNFDGRLHIEHLYILKIDGRWVLDKIEIE”, the protease stability score amounted to 0.246.

“SEEEHITKLALDMWFTSLLTGDEHTFRHLLDPNVRVHIDGREYHGREHWRDLLTYLLTHLGVDHMEFRTRDQDVVGDKITLVTEIIIHVGDKNLSFESELIVAKVDGRWRIRSEDYR” yielded a protease stability score of 0.645.

On to “SEEEHIVKEAVRLWYEAVHTGDPHTLNEFLDPHMRIEIGDKEKHGRHELKKLTEHIRIERLEFTLTHMKIVGNKAHVYGHLRFEGDWDGQRIHTEVETRLHIIKYDGKWMTEEVHIR”, for which the protease stability score was determined as 1.97.

“SEEEHKIRKLLEDLANFIRTGDEHRINELLDPNVMIDINGQKFHGRESLETVYHEWLKRVDHIEDLRIDDISKQGEFLIMHANMTLRQGDKHHRENVHIIILKVDGRWIMTSILFR” registered a protease stability score of 2.2.

For the sequence “SEEEHLAREMTELHKQAELTGDEHFLNELMDPHVRIDINGVPAIGWEESNEVLKRIWEEMRIDDIRPTHVELQGNKIHVHVQSHITIDGQRRIFHERIVIVVFNGRMREVKFDIH”, the protease stability score was 1.19.

In the case of “SEEEHLFEFVIRVIYHAMKTGDWEFWERYLDPHVRYQQGDKEHHGRKMTLHYLERLSDELGVTRIEVDLKHIHVYNGRVEIIGELNINGRRTEVRITSEKINGRWTVKELHIV”, the protease stability score was 1.55.

“SEEEHLLKFFLDVLMDLHSTGDERKLYELFDPNVRIEYDGKETHGRERAREQFQEMRVRVEHVHIKDLTLQGDKVIIDTKVDMTIHIDGKTIREDRKLQVDFDKVDGRWTVHELIFR” registered a protease stability score of 1.13.

“SEEEHLLREILERIIHIYSTGDEQILKHLMDPHVKITVEVNGRRIIFHGMEQYIQWYRDLGFDHSKVKLRDHRIIGDKAHAVTELEIHFDGKRREEETREVIVVIDGRLTTWHTSVN” registered a protease stability score of 0.898.

Sequence “SEEEHLMRELLEVFLRNMLTGDWDKTAKLADPDTRFRAHVGDFKVERHGMEQFIKWLKDEREQWRIRRIHIDRIELVDGVIRVEGTIDVEYDGVREVERSELILVIIDGRIHEVEVHIR” displayed a protease stability score of 1.44.

Take “SEEEHLSKLTKKHMLHLWETGNETILEELADPNARHRWLVNGKEVTAHGREEVTRLFRDILDELGVDHLKLHSETVIGEKIHFDMIMIIGEFESRVRLNLHIVNGRIKEIDLQEQ”: the protease stability score was found to be 0.445.

Take “SEEEHMIELIVKWYSRALETGDEEELAEMLDPNTRLDVDGKDIHGRENILKRRKKHLDHLGHERIEIHFDVSHIDYIGDKVIIHVKLILHYNGREIHLDVKMLIVKINGRWRFRHFESK”: the protease stability score amounted to 1.93.

With “SEEEHMLEAFFEDVLQLVMTGDEHRLKHLFDPNVRVETEHEHFHGRELFLQRMLEIRIHDFHIHDFEVQGDKAHVDGRVEGTIDGRTNHWTFTLILEKIDGRWLANKVTWH”, the protease stability score was 1.55.

“SEEEHRMREILDLLTESFHTGDERIHLEYADPHARFDIGDKHIHGRELFTKRWKEWLERFKNITLQLRIDDVSIIDGVFVVEGTLTIRINGVEIERDTHIFLYIVDGRVSTMKRTIH”: the protease stability score is -0.116.

As for “SEEEHRSELAVELVHYTLMTGDFHLIERLVDPNVKLRILIGDKEYDLHGWKEVYRFMVTFGFDHMELKTFDLQGDKLNIDLRLHVDGRNVETSIVALKVNGKWINESEHYRIK”, the protease stability score came out at 0.464.

Take “SEEEHRVKELARLFVEVLLTGDWKTLLELMDPNTRLRINGKDFIGMEDAVKAWRDYLDEIRHDDIKLTRIENNEDHSHLDGRQHGIYNGQRTDTILNVDIHMVNGKIKEVHIEIE”: the protease stability score worked out at 1.01.

As for “SEEEHRVKELSELMLHWFKTGDEETMDHLMDPDARFELQVGDKEVHSHGWESVHKVLRRTLFWLGADHYNDKDFKHQGDKSKIDMTVHVGDKTVEVTLHLKIVDGRLKFLEIRVK”, the protease stability score stood at 1.16.

On to “SEEEHTSEEALRAFVFLELTGDEKSLIELLDPRTRIHAENHEVVGRERATEEWRRWLEFYKNIRVHDVEIEEIHLIDGRIKLIMRRDGVINGVKRETHIRMITNKVNGRWLVHSIIIR”, for which the protease stability score is 1.37.

Regarding “SEEEHVAEELIKQFLRKFSTGDEDSMRNLFDPNVKIEQGEFDIHGREEETRYFRELRVHIEDSTAREIRVQGDKVDIDLEVVGIVHFNGKTVRRIIRTRVHLLKVDGQWHIKSIQIL”, the protease stability score is 1.24.

For “SEEEHVAKKLSDLILHAWRTGDEDQLSRLMDPHVRMIIGDKHLHGREEVSRWLHDWRRQVDHVEFHVKRFHVQGNKYTNDGHFVVHQGDKETRTDVEIILIVVDGKIHEIRIIIR”, the protease stability score is 2.17.

“SEEEHVLEFIVKLFLEAWLTGDEDIIDWLVDPHTRLHVNGVDLHGREEVSHFLAHIRVEQLHIDDERITNINGVLHVDIKTEERFDVNGRVTRTKSELHIFIRKVDGRWFIQVFKIVYH” had a protease stability score of 0.332.

Sequence “SEEEHVMVEIVRKLTEAKHTGDFKTEHELMDPHARIDINGVEIHGMEEWRHLYEEWRFIVHRTHVRHVHVQGDKVDLKGEFRGVIDYDGREIEYNTKVNLHLHKVDGRWQLHDVKTT” registered a protease stability score of 0.552.

As to “SEEEHVTDLALELWIRTHNTGNWHLLKRLLDPNTRVQVGNKIYHGMELISKEIFRKLLEMGFETHIEVEDSEYFEGHVRFRITIRLVVGDKEIILDTELLMIKFNGRWFITEIRIE”, the protease stability score worked out at 0.686.

Sequence “SEEEHWLDDAFRWLIELIFTGDETEIEKMIDPNVKIHIGEKNNHGREIMIEWLERLGVKHVREMRIRHVHRQGNKLIVHGEIHREVDGVKIETESLIVAKKVDGQWHLQSVRVN” displayed a protease stability score of 2.37.

In the case of “SEEEHWVELLIELLERTQKTGDEHSFERLMDPNVRIIIGDKVMHGREEASRWMHEARVHETRIEHIRIINGRAHIDSRERGEINGREINLRVEIISSKVDGRWVITEVRVE”, the protease stability score came out at 0.943.

Regarding “SEEEHWVREFEEAVRHDAETGDENSISEFLDPNVRVDINGKELHGRELMDEMIRHFLERYDHIRIHIHDNRLIDGRVEMDIRLYFIQGEKHMEIDSERFIFKVDGKWRLEEVRIK”, the protease stability score is 0.3.

Regarding “SEEEHYMLKVAKLAVRNYFTGNEHVLDELFDPHTRQEVNGVENHGRETVRDFLREHLKHMRFHDFKIRDFKWQGDKAHTETETDVEIDGQRIPLRMEIIIIIIDGVPKSISLRLG”, the protease stability score came to 1.05.

On to “SEEEHYRREMIHFSREVWETGDWDSLMNLADPNVRIEAENHDLHGREFFVKLMEEISRKFKNVRIIIRHLHIQGDKVEMHSEIIFNGRSVHVTFFALKVNGRWIFKEMVFI”, for which the protease stability score is 0.925.

Take “SEEEIMTKLAEKILKMHWDTGDERIRKELADPHVRIDQGDFNLHGWEVLHLTLNLLGVTKFRLHILEIHDVSMQGDKIEMDIEVHMHVNGRKISFRVQVHSIKIDGKWKQHSLIIH”: the protease stability score was 0.153.

“SEEEKAFKESYDVWIEALKTGNEEESREMFDPTPLQVVNGQELHGRDHIEQEVSEWRIDHVDIDELRLQGDKAILHGRVSGHINGKRVKFEEKLVMHKIDGRWFIRSVIVR” came in with a protease stability score of 0.333.

“SEEEKAIIDLFKLWIHAFVTGDEEKLSELMDPRVRLTVGDKHLHGMEIVVEWYRRLRDKIKNLQFRSFEIEDFRIVNGRVELEAVIHIHFNGQMRTIEVRFILEKVDGRWFLKSVEEK” had a protease stability score of 2.57.

“SEEEKDARDFIDYLVHHLETGDEEEFEKLIDPHTRLQVDGRHFHGREAYEWMLYQFKNVKIKHLTIRHIEIQGDKVHITSTWNLIVDGQEKELRTHIILDKVNGRWMIRKMRIQ”: the protease stability score is 1.8.

For “SEEEKDATDMLEHYIRSLLTGDEHLWRELADPNVKTEIDGVEMIGRESWRILVERLGVDHSDVEDIDFRFYDGRLNVRVKTRHHVNGRTFETELIVIIEKINGRWRVTQIEIRIK”, the protease stability score came out at 2.5.

Sequence “SEEEKDIKNAFRLLVKIIRTGDWEDHHKQMDPDVLIIVGDKEHHGWEEASRFMKEHLERVDHEDLKLRRVHIQGEKMELDGELFVNVDGRLIRMRVIFFLNKVNGRWVIHSLEIR” registered a protease stability score of 2.28.

The sequence “SEEEKDNKLAIHLTMEILRTGDEEHSKKMIDPDARHQQGDKELHGMEEVSTEIMEIWRRYKGVKFEVKRVHMQGEFIKIKVDLHVNGQTLDVIIVLYKVDGRWTIHSIHVH” registered a protease stability score of 1.48.

“SEEEKEAEDILRMVIHVLRTGDWHTLKNMLDPHAKNDVNGREQVGMRDWIETFTRIHRELGISNIDFKLHDIRITEHHVLVDGILIFNGKEYRLNLIITKINGRWVNEHIHLH” came in with a protease stability score of 1.08.

The sequence “SEEEKEAEEAMKRSLRSLETGDEELLDEMADPDVRLHVGEFQLIGRESFRKHQRRLTKRFKNMRFHIHRMEVYGEKLSIFGRFHWDGVDTETEIIEVKINGRWFLREVHIR” showed a protease stability score of 0.639.

As for “SEEEKEAEEFLRKHLHDRLTGDEDWVLRNIDPNARFDINGREIIGMEEWRQWLHEARVRVDDTQIDEKRSVGNKLDVRSTMHVTIEFDGVRVKHILDVELIMTKVDGKWKVKEVRVR”, the protease stability score came out at 1.61.

Turning to “SEEEKEAERMLRLWIETVKTGNEEVWRELFDPNARMLIGDKESVGREQIEELVRSVYDRLGAKVIHDFYIDRIHVIGDKVEIDSRVDSIINGRRYHLETHIIFVKINGKWVLKSVELR”, the protease stability score worked out at 2.06.

Take “SEEEKEAHDWMEVWLELFHTGDEDMLEHMADPHTRIHVDGRKFHGRENYVRLVRHMRVHHFIERRVRIINGRIHIEGEARVNINGQEIDNHVQIHLNLVDGRLKTEHIKVK”: the protease stability score came to 0.927.

Regarding “SEEEKEAKDALEKLWHYWHTGDEHELVRLADPTMRHIINGRHFHGREFFSELLRRLGFKHIIYHFEDMDVQGDKVHIHGHIESEFDGRRHHMNTHLIILKVNGKWIYESIKFD”, the protease stability score came out at 1.32.
